This is an account of results in PMC12809495, “Potential 14-3-3 binding sites in sirtuins reveal extended phosphosite-recognition modes” (Acta Crystallographica Section F: Structural Biology …, 2026).

Where two headings read alike, the source gives them in different places. Where a SMILES comes first, the peptide text is derived from it. Where no end group is shown, it is not given here. [ ]: non-standard residue; d: D form. pT = C[C@@H](OP(=O)(O)O)[C@H](N)C(=O)O; pS = N[C@@H](COP(=O)(O)O)C(=O)O

One experiment concerns the target T1, 14-3-3 isoform theta (Homo sapiens, UniProt P27348).
T1 construct: His6; made in house; host or cells: Escherichia coli BL21 Rosetta (DE3)
T1 sequence (P27348 1-245): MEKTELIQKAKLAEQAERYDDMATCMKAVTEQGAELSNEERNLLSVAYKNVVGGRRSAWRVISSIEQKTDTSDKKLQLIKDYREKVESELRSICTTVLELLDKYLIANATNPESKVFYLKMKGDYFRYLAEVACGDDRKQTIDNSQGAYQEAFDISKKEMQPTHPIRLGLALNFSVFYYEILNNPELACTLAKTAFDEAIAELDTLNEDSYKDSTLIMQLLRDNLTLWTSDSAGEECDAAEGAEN
The experiment in a line: Label-free microscale thermophoresis (MST) binding, 14-3-3 theta. The note with it: label-free MST, 0.6 µM 14-3-3 protein, 25 mM MES pH 6.5, 5 mM MgCl2, 5 mM CaCl2, 25°C, Kd from duplicate measurements. As for the experimental part:
(§1) The binding of phosphorylated sirtuin peptides (Fig. 1 ▸) was analyzed using the change in the intrinsic fluorescence signal of the 14-3-3 proteins measured with label-free microscale thermophoresis using a Nanotemper Monolith NT.LabelFree or NT.115. A typical binding experiment using 0.6 µM 14-3-3 protein was performed in a modified MST buffer consisting of 25 mM MES pH 6.5, 5 mM MgCl2, 5 mM CaCl2. The measurements were performed at 25°C using a LED power of 10–40%. All measurements were performed at least in duplicate, and the results shown are representative measurements individually fitted using GraFit 7 (Erathicus Software, Horley, United Kingdom).
(§2) Figure 1 Classification and analysis of sirtuin PSSM results for potential 14-3-3 phosphoserine binding sites. Peptides with a gray background were not analyzed experimentally. Score is the overall PSSM score for the phosphorylation site; rank is the order within the 17 proposed sirtuin binding sites. Conserved residues in the 14-3-3 motifs are marked in green. Residues with restricted (proline) or very flexible (glycine) protein backbone or with a very large side chain (tryptophan) are marked in red. Amino acids with the same or similar hydrophobicity/size are shown in magenta. Kd values from duplicate measurements are colored green for Kd < 100 µM. Fields marked in red indicate no binding or no successful experiment. TEXT PRINTED IN THE PICTURE: Sirt1 S26: Affinity estimates by MicroScale Thermophoresis [μM], 14-3-3 isoform sigma: none | Sirt1 S670: Affinity estimates by MicroScale Thermophoresis [μM], 14-3-3 isoform gamma: aggr.; Affinity estimates by MicroScale Thermophoresis [μM], 14-3-3 isoform epsilon: > 183; Affinity estimates by MicroScale Thermophoresis [μM], 14-3-3 isoform theta: 93; Affinity estimates by MicroScale Thermophoresis [μM], 14-3-3 isoform sigma: 5 | Sirt3 S103: Affinity estimates by MicroScale Thermophoresis [μM], 14-3-3 isoform gamma: aggr.; Affinity estimates by MicroScale Thermophoresis [μM], 14-3-3 isoform epsilon: > 267; Affinity estimates by MicroScale Thermophoresis [μM], 14-3-3 isoform theta: 52; Affinity estimates by MicroScale Thermophoresis [μM], 14-3-3 isoform sigma: 10 | Sirt3 S103wt: Affinity estimates by MicroScale Thermophoresis [μM], 14-3-3 isoform gamma: aggr.; Affinity estimates by MicroScale Thermophoresis [μM], 14-3-3 isoform theta: none; Affinity estimates by MicroScale Thermophoresis [μM], 14-3-3 isoform sigma: none | Sirt3 S105: Affinity estimates by MicroScale Thermophoresis [μM], 14-3-3 isoform gamma: aggr.; Affinity estimates by MicroScale Thermophoresis [μM], 14-3-3 isoform epsilon: > 215; Affinity estimates by MicroScale Thermophoresis [μM], 14-3-3 isoform theta: 60; Affinity estimates by MicroScale Thermophoresis [μM], 14-3-3 isoform sigma: none | Sirt5 S168: Affinity estimates by MicroScale Thermophoresis [μM], 14-3-3 isoform epsilon: aggr.; Affinity estimates by MicroScale Thermophoresis [μM], 14-3-3 isoform theta: aggr.; Affinity estimates by MicroScale Thermophoresis [μM], 14-3-3 isoform sigma: > 329 | Sirt6 T337: Affinity estimates by MicroScale Thermophoresis [μM], 14-3-3 isoform epsilon: > 420; Affinity estimates by MicroScale Thermophoresis [μM], 14-3-3 isoform sigma: 12 | Sirt6 S338: Affinity estimates by MicroScale Thermophoresis [μM], 14-3-3 isoform epsilon: 19; Affinity estimates by MicroScale Thermophoresis [μM], 14-3-3 isoform sigma: 24 | Sirt7 S136: Affinity estimates by MicroScale Thermophoresis [μM], 14-3-3 isoform epsilon: none; Affinity estimates by MicroScale Thermophoresis [μM], 14-3-3 isoform theta: 30; Affinity estimates by MicroScale Thermophoresis [μM], 14-3-3 isoform sigma: 49

The next experiment has as its target T2, 14-3-3 isoform epsilon (Homo sapiens, UniProt P62258).
T2 construct: His6; made in house; host or cells: Escherichia coli BL21 Rosetta (DE3)
T2 sequence (P62258 1-255): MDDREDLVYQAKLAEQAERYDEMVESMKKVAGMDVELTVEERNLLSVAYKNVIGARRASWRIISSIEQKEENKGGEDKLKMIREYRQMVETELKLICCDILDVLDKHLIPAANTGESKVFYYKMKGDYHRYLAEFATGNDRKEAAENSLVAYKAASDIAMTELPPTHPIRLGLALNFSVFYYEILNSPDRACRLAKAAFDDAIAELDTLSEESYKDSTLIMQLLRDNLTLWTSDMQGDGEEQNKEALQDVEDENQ
The experiment in a line: Label-free microscale thermophoresis (MST) binding, 14-3-3 epsilon. The method, then:
as §1, §2
(Microscale thermophoresis detects binding through changes in fluorescence in a small temperature gradient.)

In experiment [1] the target is T3, 14-3-3σ-ΔC (C-terminally truncated human 14-3-3σ) (human, UniProt P31947 1-231).
T3 chain: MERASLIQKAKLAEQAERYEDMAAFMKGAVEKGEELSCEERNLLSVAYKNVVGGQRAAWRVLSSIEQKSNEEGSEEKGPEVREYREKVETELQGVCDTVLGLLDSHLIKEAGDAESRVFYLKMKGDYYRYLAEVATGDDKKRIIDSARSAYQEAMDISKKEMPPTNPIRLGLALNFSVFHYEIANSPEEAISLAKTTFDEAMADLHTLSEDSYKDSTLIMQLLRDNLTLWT
In words: MST.

The target of another experiment is T4, 14-3-3 epsilon (Homo sapiens).
T4 chain: T2 sequence (P62258 1-255)
In words: MST.

The target of the next experiment is T5, 14-3-3 theta (Homo sapiens).
T5 chain: T1 sequence (P27348 1-245)
The experiment in a line: MST.

The mark [2] stands for this setting: label-free MST, 0.6 µM 14-3-3 protein, 25 mM MES pH 6.5, 5 mM MgCl2, 5 mM CaCl2, 25°C, Kd from duplicate measurements.

In general, Kd refers to the concentration at which binding is half-saturated. For `CC(C)C[C@H](NC(=O)[C@H](CC(=O)O)NC(=O)[C@H](C)NC(=O)[C@H](C)NC(=O)[C@H](COP(=O)(O)O)NC(=O)[C@@H](NC(=O)[C@H](CO)NC(=O)[C@H](CCCNC(=N)N)NC(=O)CNC(=O)[C@@H](N)CCCCN)C(C)C)C(=O)N[C@@H](CO)C(=O)O` [Sirt7 S136] (H-KGRSV[pS]AADLS-OH), the Kd on 14-3-3 isoform theta (read-out: Affinity estimates by MicroScale Thermophoresis, 14-3-3 isoform theta (Kd)) was 30 µM. The “Affinity estimates by MicroScale Thermophoresis, 14-3-3 isoform epsilon (Kd)” value at 14-3-3 isoform epsilon (setting [2]) was “none”.

For the molecule `C[C@H](NC(=O)[C@@H]1CCCN1C(=O)[C@H](CO)NC(=O)[C@@H](NC(=O)[C@@H]1CCCN1C(=O)[C@H](CCCNC(=N)N)NC(=O)[C@H](CCC(=O)O)NC(=O)[C@H](CCCNC(=N)N)NC(=O)[C@@H](N)CCCCN)[C@@H](C)OP(=O)(O)O)C(=O)N1CCC[C@H]1C(=O)N[C@@H](Cc1c[nH]cn1)C(=O)O` [Sirt6^pT337] (H-KRERP[pT]SPAPH-OH), the Kd at 14-3-3 isoform epsilon is > 420 µM.

Consider `CC(C)[C@H](NC(=O)CNC(=O)[C@H](CS)NC(=O)[C@H](COP(=O)(O)O)NC(=O)[C@@H](NC(=O)[C@H](CS)NC(=O)[C@H](CCCNC(=N)N)NC(=O)[C@@H](NC(=O)[C@@H](N)CCCCN)[C@@H](C)O)[C@@H](C)O)C(=O)N[C@H](C(=O)N[C@@H](C)C(=O)O)C(C)C` [Sirt5 S168] (H-KTRCT[pS]CGVVA-OH; N-terminus and C-terminus assumed), for which the “Affinity estimates by MicroScale Thermophoresis, 14-3-3 isoform theta (Kd)” value at 14-3-3 isoform theta is recorded as “aggr”. The “Affinity estimates by MicroScale Thermophoresis, 14-3-3 isoform epsilon (Kd)” value on 14-3-3 isoform epsilon (setting [2]) is recorded as “aggr”.

On to `C[C@H](NC(=O)[C@@H]1CCCN1C(=O)[C@H](COP(=O)(O)O)NC(=O)[C@@H](NC(=O)[C@@H]1CCCN1C(=O)[C@H](CCCNC(=N)N)NC(=O)[C@H](CCC(=O)O)NC(=O)[C@@H](N)CCCNC(=N)N)[C@@H](C)O)C(=O)N1CCC[C@H]1C(=O)N[C@@H](Cc1c[nH]cn1)C(=O)N[C@@H](CCCNC(=N)N)C(=O)O` [Sirt6^pS338] (H-RERPT[pS]PAPHR-OH), for which the Kd on 14-3-3 isoform epsilon (label-free MST, 0.6 µM 14-3-3 protein, 25 mM MES pH 6.5, 5 mM MgCl2, 5 mM CaCl2, 25°C, Kd from duplicate measurements, read-out: Affinity estimates by MicroScale Thermophoresis, 14-3-3 isoform epsilon (Kd)) is 19 µM.

On to KTRCT[pS]CGVVA (cysteine pairing not given here) [Sirt5 pS168], for which the Kd in experiment [1] was > 329 µM.

Consider RERPT[pS]PAPHR [Sirt6^pS338 phospho-endecamer peptide], for which the Kd with 14-3-3 epsilon came to 19 µM; in experiment [1] it was 24 µM.

Turning to KGRSV[pS]AADLS [Sirt7 pS136, listing 1 of 2 here], in experiment [1], the Kd stood at 49 µM.

KGRSV[pS]AADLS [Sirt7 pS136, listing 2 of 2 here] had a Kd in the experiment with 14-3-3 theta of 30 µM.

Turning to KRERP[pT]SPAPH [Sirt6^pT336 phospho-endecamer peptide], the Kd with 14-3-3 epsilon was > 420 µM; in experiment [1], 12 µM.

RSISF[pS]VGASS (also: phosphoserine at 105 (place in chain not given here)) [Sirt3^pS105 phospho-endecamer peptide]: the Kd with 14-3-3 epsilon was > 215 µM; with 14-3-3 theta, 60 µM.
